From PMC9073949 (Crystal Growth & Design, 2022)
“And” between values parts separate entries of the source, which are not always exact repeats. Equal entries are not always repeated. Where two headings read alike, the source gives them in different places.

Tests used:
[1] = for solubility: equilibrium with crystals, UV 280 nm
Experimental: (§1) Precise temperature control was achieved by using incubators held at a constant temperature. Citric acid buffer (0.1 M) was prepared at different pH levels by varying the ratio between citric acid and tri-sodium citrate. The pH was determined using a Jenway 4330 pH and conductivity meter (Jenway, UK) with an instrument resolution of around ±0.02 pH units. Zinc sulfate (ZnSO4), zinc chloride (ZnCl2), or zinc acetate (ZnAc) were dissolved in citric acid buffer as a zinc salt stock solution. […] Each experimental condition was repeated multiple times, and the error bars represent the deviation between these repetitions. The desupersaturation (crystallization occurs and the solution concentration decreases) was monitored by measuring the UV–vis absorption at a wavelength of 280 nm with a NanoDrop One^c microvolume UV–vis spectrophotometer (Thermo Fischer Scientific, USA). A sample as small as 10–20 μL was withdrawn from the crystallizer (Eppendorf tube) and was centrifuged (6000 rpm, 10–20 min). […] An extinction coefficient of 1.04 mL·mg^–1·cm^–1 was utilized.[32] Multiple dilutions for every sample were made to minimize dilution errors. The crystal slurry which remained in the centrifuged sample was observed underneath an optical microscope (CX-41, Olympus, Japan) to confirm that the decrease in concentration is because of crystallization and not due to other phenomena, such as amorphous precipitation.
(§2) This lag time is commonly termed as induction time.[33] We found the induction time graphically by finding the intersection between the tangents of the point of inflection (tangent of the biggest gradient after the solution concentration dropped substantially) and the initial concentration (which stays constant until the solution concentration drops substantially). A graphical visualization and a detailed definition and justification of induction time can be found in the Supporting Information.
To ensure that the true solubility concentration was measured, the samples were gently mixed frequently with pipettes once the crystallization experiment had finished. […] Once the concentration had stabilized, that is, no significant change over multiple days, this concentration was taken as solubility.

[2] = Dynamic light scattering: diffusion coefficient and polydispersity of insulin; type: physicochemical; settings: DLS
Experimental: The solutions were prepared identically to the crystallization solutions which have been described previously. The solutions were filtered with a 0.22 μm pore size filter into a disposal cuvette (polystyrene) which then was loaded into a Zetasizer μV (Malvern, UK).

[3] = Static light scattering (Debye plot): second osmotic virial coefficient B22 and derived activity coefficient; type: physicochemical; settings: for B22 (second virial coefficient): SLS Debye plot, ≤ 3 mg·mL^–1, 24.0 °C
Text: The procedure was identical to the DLS experiments, but instead of disposable cuvettes, a quartz cuvette was utilized. After each run, the quartz cuvette was carefully washed with deionized water, ethanol, and IPA followed by drying to remove any impurities and dust before further usage for the next sample. A solvent refractive index of 1.3304 and a refractive index increment of Δn/Δc = 0.183 were utilized.[34] The second virial coefficient was obtained by using Debye plots at low protein concentration (≤ 3 mg·mL^–1).

[4] = Insulin crystallization kinetics (desupersaturation, induction time, crystal yield); type: physicochemical
Experimental: as §1, §2
The crystal yield was calculated to evaluate the performance of crystallization. […] The yield can be either expressed in terms of concentration or supersaturation ratio, which is St = ct/c* for an ideal solution with […] at time zero. [drawing 2] 2

[5] = pH 6.0, St=0 = 10.0, ZnSO4, 24.0 °C
[6] = pH 6.0, initial insulin 3 mg·mL^–1, ZnSO4 […], 24.0 °C

Substance: Human insulin
- solubility ([1]; pH 6.0, ZnSO4, 73 mM citric buffer, 7 mM HEPES, 24.0 °C): 0.14 mg·mL^–1
- increase in solubility ([1]; pH 6.0 to pH 6.7, ZnSO4, 24.0 °C): 5 fold
- solubility ([1]; pH 6.5, ZnSO4, 73 mM citric buffer, 7 mM HEPES, 24.0 °C): 0.41 mg·mL^–1
- increase in solubility ([1]; pH 6.5 to pH 6.7 (0.2 pH units), ZnSO4, 24.0 °C): roughly 70%
- insulin equilibrium concentration (solubility c*) ([1]; pH 6.7, ZnSO4 (SO4^2– anion), thermodynamic, equilibrium with crystals after crystallization, 73 mM citric buffer, 7 mM HEPES, 24.0 °C, monitored up to 4 weeks, UV 280 nm of centrifuged supernatant): 0.70 mg·mL^–1 and 0.70 ± 0.03 mg·mL^–1
- diffusion coefficient ([2]; pH 6.0, lower end of insulin concentrations probed, 24.0 °C): 0.99 × 10^–6 cm^2·s^–1
- diffusion coefficient ([2]; pH 6.0, upper end of insulin concentrations probed, 24.0 °C): 0.86 × 10^–6 cm^2·s^–1
- diffusion coefficient ([2]; pH 6.7, Ac^2– anion, cins = 3 mg·mL^–1, 24.0 °C): 0.87 ± 0.1·10^–3 10^–6 cm^2·s^–1
- diffusion coefficient ([2]; pH 6.7, Cl^– anion, cins = 3 mg·mL^–1, 24.0 °C): 0.87 ± 0.5·10^–3 10^–6 cm^2·s^–1
- B22 (second virial coefficient) ([3]; pH 6.0): –4.23 × 10^–4 mL·mol·g^–2
- B22 (second virial coefficient) ([3]; pH 6.2): –2.47 × 10^–4 mL·mol·g^–2
- B22 (second virial coefficient) ([3]; pH 6.5): –4.18 × 10^–4 mL·mol·g^–2
- B22 (second virial coefficient) ([3]; pH 6.7): –4.0 × 10^–4 mL·mol·g^–2
- γ (activity coefficient) ([3]; pH 6.7, calculated from B22 with eq 4, 24.0 °C): 0.96
- desupersaturation rate after a yield of 85% was achieved ([4]; St=0 = 10.0, pH 6.0): 0.03 h^–1
- desupersaturation rate after a yield of 85% was achieved ([4]; St=0 = 10.0, pH 6.2): 0.01 h^–1
- desupersaturation rate after a yield of 85% was achieved ([4]; St=0 = 10.0, pH 6.5): 0.07 h^–1
- desupersaturation rate after a yield of 85% was achieved ([4]; St=0 = 10.0, pH 6.7): 0.02 h^–1
- t50% (time required to achieve a yield of 50%) ([4]; pH 6.0, St=0 = 5.6): 128.0 h
- induction time ([4]; pH 6.0, St=0 = 5.6, ZnSO4, 24.0 °C): 81.0 h
- crystallization rate ΔS/Δt [4, 5]: 0.18 h^–1
- induction time [4, 5]: 26.5 h
- time after which the concentration drops [4, 6]: 4.0 h
- time to reach quasi-equilibrium concentration [4, 6]: roughly 20.0 h
- reduction in induction time ([4]; pH 6.0, initial supersaturation ratio increased from 5.6 to 10.0): 67%
- decrease in induction time ([4]; pH 6.0 to pH 6.7 at St=0 = 7.4): roughly 81%
- decrease in induction time ([4]; pH 6.0 to pH 6.7 at St=0 = 10.0): ~88%
- reduction in induction time ([4]; pH 6.5, initial supersaturation ratio increased from 5.6 to 10.0): 77%
- crystallization rate ΔS/Δt ([4]; pH 6.7, St=0 = 5.7, 12.0 h to 41.0 h, ZnSO4, 24.0 °C): 0.13 h^–1
- crystallization rate ΔS/Δt ([4]; pH 6.7, St=0 = 10.0, 1.3 h to 26.0 h, ZnSO4, 24.0 °C): 0.32 h^–1
- time to reach quasi-equilibrium concentration ([4]; pH 6.7, initial insulin 3 mg·mL^–1, ZnSO4 […], 24.0 °C): ~80.0 h
